One substance from patent US20120214741 can be followed below.

The target of this data set is VDAC of isolated rat mitochondria (liver, brain) (UniProt Q9Z2L0).
Chain of VDAC of isolated rat mitochondria (liver, brain) (Q9Z2L0 2-283): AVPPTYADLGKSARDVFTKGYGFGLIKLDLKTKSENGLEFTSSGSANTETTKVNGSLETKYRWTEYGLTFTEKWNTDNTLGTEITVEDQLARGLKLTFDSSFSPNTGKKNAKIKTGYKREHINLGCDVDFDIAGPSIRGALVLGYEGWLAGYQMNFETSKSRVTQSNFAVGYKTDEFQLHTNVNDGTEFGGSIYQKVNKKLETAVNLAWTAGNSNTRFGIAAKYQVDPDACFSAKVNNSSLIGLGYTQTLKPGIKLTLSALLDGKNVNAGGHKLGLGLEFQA

yeast HK: the “PTP opening (swelling of energized mitochondria)” value was “The failure of non-binding species of HK, such as yeast HK, or trypsin- or chymotrypsin-treated HK-I (FIG. 2D) to prevent PTP opening”.
